Key:
IL-7Rα subunit [1] = target: T1, IL-7Rα subunit (Homo sapiens, UniProt P16871); assay: Phage competitive binding assay characterizing the IL-7Rα ligand binding site; conditions: for Competition with Phage Clone SEQ ID NO: 5 (Family 1) for binding to the IL-7Rα subunit: phage clone 5, immobilized IL-7Rα ECD; for Competition with Phage Clone SEQ ID NO: 43 (Family 3A) for binding to the IL-7Rα subunit: phage clone 43, immobilized IL-7Rα ECD; for Competition with Phage Clone SEQ ID NO: 104 (Family 3B) for binding to the IL-7Rα subunit: phage clone 104, immobilized IL-7Rα ECD; for Competition with Phage Clone SEQ ID NO: 313 (Family 2) for binding to the IL-7Rα subunit: phage clone 313, immobilized IL-7Rα ECD
IL-7Rα subunit [2] = target: T1, IL-7Rα subunit; assay: Competition of IL-7Rα ligands with IL-7 for binding to IL-7Rα

T1 sequence (P16871 21-236): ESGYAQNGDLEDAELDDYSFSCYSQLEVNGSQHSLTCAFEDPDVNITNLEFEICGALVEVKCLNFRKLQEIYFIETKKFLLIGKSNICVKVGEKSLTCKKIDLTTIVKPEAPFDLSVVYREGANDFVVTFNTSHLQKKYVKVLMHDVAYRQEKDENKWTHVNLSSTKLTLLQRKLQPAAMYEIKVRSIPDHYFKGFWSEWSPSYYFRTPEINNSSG

| Substance | Competition with Phage Clone SEQ ID NO: 5 (Family 1) for binding to the IL-7Rα subunit (IL-7Rα subunit [1]) | Competition with Phage Clone SEQ ID NO: 43 (Family 3A) for binding to the IL-7Rα subunit (IL-7Rα subunit [1]) | Competition with Phage Clone SEQ ID NO: 104 (Family 3B) for binding to the IL-7Rα subunit (IL-7Rα subunit [1]) | Competition with Phage Clone SEQ ID NO: 313 (Family 2) for binding to the IL-7Rα subunit (IL-7Rα subunit [1]) | Competitive binding with IL-7 binding to IL-7Rα (IL-7Rα subunit [2]) | Competition with Phage Clone SEQ ID NO: 965 (N/A) for binding to the IL-7Rα subunit (IL-7Rα subunit [1]; phage clone 965, immobilized IL-7Rα ECD) |
| --- | --- | --- | --- | --- | --- | --- |
| Q C I H W D I E T L L S C V [SEQ ID NO: 5] | + (IL-7Rα ligand competes with phage binding.) | + (IL-7Rα ligand competes with phage binding.) | + (IL-7Rα ligand competes with phage binding.) | + (IL-7Rα ligand competes with phage binding.) | do not bind competitively |  |
| QCVHWDLDTLFGCIREQLEL [SEQ ID NO: 146] | +^1 (IL-7Rα ligand competes with phage binding.) | + (IL-7Rα ligand competes with phage binding.) | + (IL-7Rα ligand competes with phage binding.) | + (IL-7Rα ligand competes with phage binding.) | do not bind competitively | 0^2 |
| V Y C A E I G E Y R V C R Q [SEQ ID NO: 43] | + (IL-7Rα ligand competes with phage binding.) | + (IL-7Rα ligand competes with phage binding.) | + (IL-7Rα ligand competes with phage binding.) | + (IL-7Rα ligand competes with phage binding.) | do not bind competitively |  |
| Y M A C S S G L S L C R L S [SEQ ID NO: 104] | + (IL-7Rα ligand competes with phage binding.) | + (IL-7Rα ligand competes with phage binding.) | + (IL-7Rα ligand competes with phage binding.) | + (IL-7Rα ligand competes with phage binding.) | do not bind competitively |  |
